The text below walks through data of patent US20190390248.

Read-outs that look alike come from different tables or passages of the source.

This series addresses human prothrombin, P00734.
Where [1] appears, read: scale: nmol thrombin/mL/min/µmol prothrombin/µmol activator.

B1: ecarin from Echis carinatus venom (protein)
chain: IILGSGNVNDYEVVYPQKVTALPKGAVQQPEQKYEDAMQYEFEVKGEPVVHLEKNKELFSEDYSETHYSSDDREITTNPSVEDHCYYHGRIQNDAESTASISACNGLKGHFKLRGETYFIEPLKIPDSEHAVYKYENIENEDEAPKMCGVTQDNWESDEPIKKTLGLIVPPHERKFEKKFIELVVVVDHSMVTKYNNDSTAIRTWIYELNTVNEIYLPFNIRVALVGLEFWCNGDLINVTSTADDTLHSFGEWRASDLLNRKRHDHAQLLTNVTLDHSTLGITFVYGCKSDRSVELILDYSNITFNMAYIIAHEMGHSLGMLHDTKFCTCGAKPCIMFGKESIPPPKEFSSCSYDQYNKYLLKYNPCILDPPLRKDIASPAVCGNEIWEEGEECDCGSPADCRNPCCDAATCKLKPGAECGNGECCDKCKIRKAGTECRPARDDCVAEHCTGQSAECPRNEFQRNGQPCLNNSGYCYNGDCPIMLNQCIALFSPSATVAQDSCFQRNLQGSYYGYCTKEIGYYGRFPCAPQDVKCGRLYCLDNSFKKNMRCKNDYSYADENKGIVEPGTKCEDGKVCINRKCVDVNTAY
The protein B1 gave a Thrombin generation rate of 2.76.

B2: OsPA (prothrombin activator purified from Oxyuranus scutellatus venom) (protein)
chain 1: AQLREYRLAAQLEDWDYNPQPEELSRLSESDLTFKKIVYREYELDFKQEKPRDELSGLLGPTLRGEVGDSLIIYFKNFATQPVSIHPQSAVYNKWSEGSSYSDGTSDVERLDDAVPPGQSFKYVWNITAEIGPKKADPPCLTYAYYSHVNMVRDFNSGLIGALLICKEGSLNADGAQKFFNREYVLMFSVFDESKNWYRKPSLQYTINGFANGTLPDVQACAYDHISWHLIGMSSSPEIFSVHFNGQTLEQNHYKVSTINLVGGASVTANMSVSRTGKWLISSLVAKHLQAGMYGYLNIKDCGNPDTLTRKLSFRERRRIMKWEYFIAAEEITWDYAPEIPSSVDRRYKAQYLDNFSNFIGKKYKKAVFRQYEDSNFTKPTYAIWPKERGILGPVIKAKVRDTVTIVFKNLASRPYSIYVHGVSVSKDAEGAVYPSDPKENITHGKAVEPGQVYTYKWTVLDTDEPTVKDSECITKLYHSAVDMTRDIASGLIGPPLVCKRKALSIRGVQNKADVEQHAVFAVFDENKSWYLEDNIKKYCSNPSSVKKDDPKFYKSNVMYTLNGYASDRTEVWGFHQSEVVEWHLTSVGTVDEIVPVHLSGHTFLSKGKHQDILNLFPMSGESATVTMDNLGTWLLSSWGSCEMSNGMRLRFLDANYDDEDEGNEEEEEDDGDIFADIFNPPEVVIKKEEVPVNFVPDPESDALAKELGLFDDEDNPKQSRSEQTEDDEEQLMIASMLGLRSFKGSVAEEELKHTALALEEDAHASDPRIDSNSAHNSDDIAGRYLRTINRRNKRRYYIAAEEVLWDYSPIGKSQVRSLPAKTTFKKAIFRSYLDDTFQTPSTGGEYEKHLGILGPIIRAEVDDVIEVQFRNLASRPYSLHAHGLLYEKSSEGRSYDDNSPELFKKDDAIMPNGTYTYVWQVPPRSGPTDNTEKCKSWAYYSGVNPEKDIHSGLIGPILICQKGMIDKYNRTIDIREFVLFFMVFDEEKSWYFPKSDKSTCEEKLIGVQSRHTFPAINGIPYQLQGLMMYKDENVHWHLLNMGGPKDVHVVNFHGQTFTEEGREDNQLGVLPLLPGTFASIKMKPSKIGTWLLETEVGENQERGMQALFTVIDKDCKLPMGLASGIIQDSQISASGHVGYWEPKLARLNNTGMFNAWSIIKKEHEHPWIQIDLQRQVVITGIQTQGTVQLLKHSYTVEYFVTYSKDGQNWITFKGRHSKTQMHFEGNSDGTTVKENHIDPPIIARYIRLHPTKFYNTPTFRIELLGCEVEGCSVPLGMESGAIKDSEITASSYKKTWWSSWEPFLARLNLKGRTNAWQPKVNNKDQWLQIDLQHLTKITSIITQGATSMTTSMYVKTFSIHYTDDNSTWKPYLDVRTSMEKVFTGNINSDGHVKHFFNPPILSRFIRIIPKTWNQYIALRIELFGCEVF
chain 2: ANSLYEEFRSGNIERECIEERCSKEEAREVFEDDEKTETFWNVYVDGDQCSSNPCHYRGTCKDGIGSYTCTCLSGYEGKNCERVLYKSCRVDNGNCWHFCKPVQNDIQCSCAEGYLLGEDGHSCVAGGNFSCGRNIKTRNKREASLPDFVQSQNAILLKKSDNPSPDIRIVNGMDCKLGECPWQAVLVDEKEDAFCGGTILSPIYVLTAAHCINQTKMISVVVGEINISRKNPGRLLSVDKIYVHQKFVPPKKGYEFYEKFDLVSYDYDIAILQMKTPIQFSENVVPACLPTADFANQVLMKQDFGIVSGFGRIFEKGPQSKTLKVLKVPYVDRHTCMLSSESPITPTMFCAGYDTLPRDACQGDSGGPHITAYRDTHFITGIVSWGEGCAQTGKYGVYTKVSKFILWIKRIMRQKLPSTESSTGRL
Regarding B2, the “fold more effective than carinactivase-1 (activation rate constants)” value was “more than 200 times then carinactivase-1”; the “fold more effective than carinactivase-2 (activation rate constants)” value was “more than 20 times more effective than ecarin and carinactivase-2”; the “fold more effective than ecarin (activation rate constants)” value is “more than 20 times more effective than ecarin and carinactivase-2”; the “fold more effective than notecarin (activation rate constants)” value is listed as “approximately 1000 times more effective than notecarin”. Under setting [1], this protein yielded a Thrombin generation rate of 44.

B3: notecarin from Notechis scutatus venom (protein)
chain: SNSLFEEIRPGNIERECIEEKCSKEEAREVFEDNEKTETFWNVYVDGDQCSSNPCHYRGTCKDGIGSYTCTCLPNYEGKNCEKVLFKSCRAFNGNCWHFCKRVQSETQCSCAESYLLGVDGHSCVAEGDFSCGRNIKARNKREASLPDFVQSQKATVLKKSDNPSPDIRIVNGMDCKLGECPWQAVLINEKGEVFCGGTILSPIHVLTAAHCINQTKSVSVIVGEIDISRKETRRLLSVDKIYVHKKFVPPNSYYQNIDRFAYDYDIAIIRMKTPIQFSENVVPACLPTADFAKEVLMKQDSGIVSGFGRTQSIGYTSNILKVITVPYVDRHTCMLSSNFRITQNMFCAGYDTLPQDACQGDSGGPHITAYGDTHFVTGIISWGEGCARKGKYGVYTKVSNFIPWIKKIMSLK
For the protein B3, the “N-terminal sequencing of SDS-PAGE bands” value was “confirmed conversion of prothrombin to alpha-thrombin by PtPA and notecarin”; the “percent of S-2238 hydrolysed by the thrombin formed” value is “then carinactivase-1 and lastly notecarin (<1%) being the least efficient”. This protein also had a Thrombin generation rate under setting [1] of 0.043.
